Experimental data reported in paper doi:10.1101/2023.06.17.545066 (bioRxiv, 2023).

Molecular target: the molecule itself
Assay: SEC

B1: EcL-TTD αβ heterodimer (complex)
chain 1: MMSESNKQQAVNKLTEIVANFTAMISTRMPDDVVDKLKQLKDAETSSMGKIIYHTMFDNMQKAIDLNRPACQDTGEIMFFVKVGSRFPLLGELQSILKQAVEEATVKAPLRHNAVEIFDEVNTGKNTGSGVPWVTWDIIPDNDDAEIEVYMAGGGCTLPGRSKVLMPSEGYEGVVKFVFENISTLAVNACPPVLVGVGIATSVETAAVLSRKAILRPIGSRHPNPKAAELELRLEEGLNRLGIGPQGLTGNSSVMGVHIESAARHPSTIGVAVSTGCWAHRRGTLLVHADLTFENLSHTRSAL
chain 2: MKKILTTPIKAEDLQDIRVGDVIYLTGTLVTCRDVCHRRLIELKRPIPYDLNGKAIFHAGPIVRKNGDKWEMVSVGPTTSMRMESFEREFIEQTGVKLVVGKGGMGPLTEEGCQKFKALHVIFPAGCAVLAATQVEEIEEVHWTELGMPESLWVCRVKEFGPLIVSIDTHGNNLIAENKKLFAERRDPIVEEICEHVHYIK
stoichiometry N: 2
